Results reported in paper PMC4487810.

Substrate: O=P(O)(O)CCO
Assay: purified protein
Conditions: O2 co-substrate
[1] = enzyme saturated with Fe(II) (more than 1 equivalent)

B1: 2-hydroxyethylphosphonate dioxygenase (HEPD) (Streptomyces viridochromogenes DSM 40736) (protein)
chain: MRIDPFKLAHWMNARKYTAAQTADLAGLPLDDLRRLLGDEANEPDPAAATALAEALSVEPSQLAADAHRNLTVVHKSAEEMHASRRPIQRDGIHFYNYYTLAAPEGRVAPVVLDILCPSDRLPALNNGHLEPAITVNLGPGDINGRWGEEITPQTWRVLHANHGGDRWITGDSYVEPSYCPHSYSLAGDAPARIVSYTAQSNISPLMTEANNWSTGAFEEALKALSGKVSAGSVLDLFLARRAHTRTSAAEAAGVPPADLEAALRSPASETGLTVLRTLGRALGFDYRVLLPADDQHDGVGKTWTTIEDSRRSRRTFGTYEAASMASAAHLPDLVGSFLRVDADGRGADLIDHAENHYVVTEGRLTLEWDGPDGPASVELEPDGSAWTGPFVRHRWHGTGTVLKFGSGAHLGYQDWLELTNTFEPAATLRRGRRDLAGWGYDN
- Km (Fe(II)): 8 ± 1 µM
- kcat (Fe(II)): 0.3 ± 0.01 s⁻¹
- Km (Fe(II), labelled compound): 10 ± 2 µM
- kcat (Fe(II), labelled compound): 0.31 ± 0.01 s⁻¹

B2: 2-hydroxyethylphosphonate dioxygenase (HEPD) (Streptomyces viridochromogenes DSM 40736; E176H) (protein)
chain: MRIDPFKLAHWMNARKYTAAQTADLAGLPLDDLRRLLGDEANEPDPAAATALAEALSVEPSQLAADAHRNLTVVHKSAEEMHASRRPIQRDGIHFYNYYTLAAPEGRVAPVVLDILCPSDRLPALNNGHLEPAITVNLGPGDINGRWGEEITPQTWRVLHANHGGDRWITGDSYVHPSYCPHSYSLAGDAPARIVSYTAQSNISPLMTEANNWSTGAFEEALKALSGKVSAGSVLDLFLARRAHTRTSAAEAAGVPPADLEAALRSPASETGLTVLRTLGRALGFDYRVLLPADDQHDGVGKTWTTIEDSRRSRRTFGTYEAASMASAAHLPDLVGSFLRVDADGRGADLIDHAENHYVVTEGRLTLEWDGPDGPASVELEPDGSAWTGPFVRHRWHGTGTVLKFGSGAHLGYQDWLELTNTFEPAATLRRGRRDLAGWGYDN
- Km [1]: 23 ± 3 µM
- kcat [1]: 0.38 ± 0.01 s⁻¹
